± gives the standard error. This sample holds only a part of the variants without activity.
B1: glmS ribozyme (parent)
chain: AUAAAAGCGCCAGAACUACAGAAAUGUAGUUGACGAGGAGGAGGUUUAUCGAAUUUUCGGCGGAUGCCUCCAAA

Variants of: B1
Test: self-cleavage kobs at 2500 uM GlcN6P; higher = faster cleavage; RNA array
Conditions: with glucosamine-6-phosphate
Method in brief: (§1)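 Using a hybridised Cy3 probe at 37 °C, barcoded ribozyme variants transcribed in situ by E. coli RNA polymerase on sequenced MiSeq chips were monitored across tiles imaged over ~14 h. The flow contained glucosamine-6-phosphate from 40 μM to 10 mM in HEPES/KCl/Mg(OAc)2 buffer. Signals were normalised to baseline and to non-cleaving reference variants before per-tile medians were fit to one- or two-exponential decays to yield kobs. Weighted Michaelis–Menten fits across concentrations gave kcat and KM.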

Variant	self-cleavage kobs at 2500 uM GlcN6P
G7A A39C G59C C70U	< 1e-05 s⁻¹
C11G G35A C61A	< 1e-05 s⁻¹
C10A G29C U55A C70G	9.79e-05 ± 2.6e-05 s⁻¹
C8G G21U U55G G60U C67G	< 1e-05 s⁻¹
A12C C50G C70A	0.000246 ± 5.7e-05 s⁻¹
C11A U56A C67G	5.5e-05 ± 1.8e-05 s⁻¹
A12C G13A A14G U31G	7.54e-05 ± 3e-05 s⁻¹
G7U G35U U54C G60A C67G C68A	5.54e-05 ± 9.5e-06 s⁻¹
G7C C11A G60C	< 1e-05 s⁻¹
C10U C11U A15C C34A	< 1e-05 s⁻¹
G7A G9U A33C U47G	< 1e-05 s⁻¹
C11U G40A U46A G59C	< 1e-05 s⁻¹
C11A C34G A36U G40A A52G A53U	< 1e-05 s⁻¹
C11U A15U G41C	< 1e-05 s⁻¹
C10G U47C A53U U54A C70U	< 1e-05 s⁻¹
G9A C61A A64U C67A	< 1e-05 s⁻¹
G9C C16A C34A G44C A64G	< 1e-05 s⁻¹
G7C A36G G37C U56A G66A	< 1e-05 s⁻¹
C8A G13U U56G A64G	< 1e-05 s⁻¹
G7A C16U U47C C58G	< 1e-05 s⁻¹
C8A G41C C58U	< 1e-05 s⁻¹
C11A G32A G43C U46A C50A G60A	< 1e-05 s⁻¹
C8G G9C G41A G60C C61A C68G	< 1e-05 s⁻¹

Variant	self-cleavage kobs at 2500 uM GlcN6P
C10U G35C G38A A52C G62U	< 1e-05 s⁻¹
G7A C11U U45C	< 1e-05 s⁻¹
C10U G40A G44C C70A	< 1e-05 s⁻¹
C8A C16G G38A A64G C68A	< 1e-05 s⁻¹
C8U C11U U30A A52C U69G	< 1e-05 s⁻¹
C10A C16U A64U	< 1e-05 s⁻¹
G7C U46A A52C	< 1e-05 s⁻¹
C11U U31A G32A G38A C70G	7.58e-05 ± 2.6e-05 s⁻¹
C10U A48C C58U	< 1e-05 s⁻¹
G9U A52U C58G	< 1e-05 s⁻¹
C11U C16A G44U G60A	< 1e-05 s⁻¹
G9C A15C G44A G60U C61G	< 1e-05 s⁻¹
C10G G41A	< 1e-05 s⁻¹
C8U A12C A15C A33C U45G C50G	< 1e-05 s⁻¹
G7C G9A A14U C50A	< 1e-05 s⁻¹
C10U A12C G66A	3.37e-05 ± 1.5e-05 s⁻¹
G7C U30G G32U A64G	< 1e-05 s⁻¹
C8U U46G C61U	< 1e-05 s⁻¹
G9U U31C G43C C67U	< 1e-05 s⁻¹
C8G G29U A36C A48G C70U	< 1e-05 s⁻¹
C10A A12C G51U	< 1e-05 s⁻¹
G7U A33U U69G	0.000542 ± 0.00021 s⁻¹
G9C C34U A53U	< 1e-05 s⁻¹

Variant	self-cleavage kobs at 2500 uM GlcN6P
C10U A33G A39G G41C C67U	< 1e-05 s⁻¹
C10U U31G U49A G62U	< 1e-05 s⁻¹
C8U U57G C71G	< 1e-05 s⁻¹
A6U G41U G59A G62C	< 1e-05 s⁻¹
C11A A14G G29U	5.93e-05 ± 2.7e-05 s⁻¹
A12C G29A U45G U46C	0.000151 ± 5.3e-05 s⁻¹
C10U C11A G41A U55C C58G	< 1e-05 s⁻¹
G7U A12C C16U G60A	< 1e-05 s⁻¹
G7U C8U G41C C70G	< 1e-05 s⁻¹
C11U U31C G41U A64G C70A	0.0011 ± 0.0003 s⁻¹
G9C U49A G51A C70U C71A	< 1e-05 s⁻¹
G9A C10U U31C G44A	< 1e-05 s⁻¹
G7U U31G C61A C70A	< 1e-05 s⁻¹
C8U U31A G43U U55A	< 1e-05 s⁻¹
C11U C16U A53C C68A C70G	< 1e-05 s⁻¹
G7U U30G A33U G44C	< 1e-05 s⁻¹
C8A U31C A42U U65G	< 1e-05 s⁻¹
G9C C11A G44U G63A C67U	< 1e-05 s⁻¹
G9A A39G A52C	< 1e-05 s⁻¹
C11U U46A G62U	< 1e-05 s⁻¹
C11U U46A G62A	< 1e-05 s⁻¹
G9C C11A G63C	< 1e-05 s⁻¹
G7A C8G G9C A15C U47G C71A	< 1e-05 s⁻¹

Variant	self-cleavage kobs at 2500 uM GlcN6P
A12C A14U U31C U56G	0.0134 ± 0.0063 s⁻¹
C10G A42C U65G	< 1e-05 s⁻¹
G9A U54G G62A	< 1e-05 s⁻¹
C10A G60C G63C C67A C68G C70G C71U	4.85e-05 ± 2.2e-05 s⁻¹
G7U A42C A64U G66U	< 1e-05 s⁻¹
G9U C10G C16U	< 1e-05 s⁻¹
G7U G9A C67A	< 1e-05 s⁻¹
G7C G44C C50U G62A C67U C70U	< 1e-05 s⁻¹
C11G G40A A53U	< 1e-05 s⁻¹
G7C A15U U31C	< 1e-05 s⁻¹
C8A G37A G41U A48U C50G U55A	< 1e-05 s⁻¹
G9U A14U A42C	< 1e-05 s⁻¹
C10G G43A A52G A53C C70U	< 1e-05 s⁻¹
C11G G51A A64C	< 1e-05 s⁻¹
C10G G41C G51A C61G	< 1e-05 s⁻¹
G9U G13U A14G G37A G60C C71U	< 1e-05 s⁻¹
G7U G35U G37C U46C C68A	< 1e-05 s⁻¹
C10A A36C C50G	0.000367 ± 0.00015 s⁻¹
A6U G13U G44C	< 1e-05 s⁻¹
G7A U30A G60C	< 1e-05 s⁻¹
A12C A48G C58G	4.08e-05 ± 1.8e-05 s⁻¹
C8U G13U A39U A42G	< 1e-05 s⁻¹
C11U A52C C68U C71G	0.0003 ± 0.00014 s⁻¹

Variant	self-cleavage kobs at 2500 uM GlcN6P
C8A A15G G32U G44U C67A	< 1e-05 s⁻¹
G7U U55A U56A	< 1e-05 s⁻¹
G9A G29C G35A G44U U46A A64C	< 1e-05 s⁻¹
C10U G29U C61A C67G	0.000121 ± 2.9e-05 s⁻¹
C11U A15G G29U	< 1e-05 s⁻¹
C8U G60U C70G	< 1e-05 s⁻¹
C8U A12U C34A	< 1e-05 s⁻¹
G9C A42U G44U	< 1e-05 s⁻¹
C11U C34G A52U	< 1e-05 s⁻¹
G7U A53G U57A	< 1e-05 s⁻¹
C11U G29U C67G	0.000197 ± 6.6e-05 s⁻¹
A6U U47A A53G G59U	< 1e-05 s⁻¹
C8A A12C A36U G59U	< 1e-05 s⁻¹
C11U A14C A39U U56C	7.9e-05 ± 2.4e-05 s⁻¹
C8G A36G G38A A52G U65G U69G	5.4e-05 ± 1.8e-05 s⁻¹
C8A G32U G59A	< 1e-05 s⁻¹
G7A G9A A14C G44A	< 1e-05 s⁻¹
G7A C8A U56G	< 1e-05 s⁻¹
C10U G13A A33U	< 1e-05 s⁻¹
G7U U31C G43A	< 1e-05 s⁻¹
C11G A14G G43U G60C	< 1e-05 s⁻¹
G9C A42C A52C G66C	< 1e-05 s⁻¹
C10G A14C A48C C50U	< 1e-05 s⁻¹

Variant	self-cleavage kobs at 2500 uM GlcN6P
A12C A39G U49C	< 1e-05 s⁻¹
C10U C11G U57A	< 1e-05 s⁻¹
C10U G29U U57C	< 1e-05 s⁻¹
G7U C16U A33U	< 1e-05 s⁻¹
C8A C16U A36C A42U	< 1e-05 s⁻¹
C8A C10U G35A G38A C68U	4.94e-05 ± 1.7e-05 s⁻¹
C8G A39U C71A	< 1e-05 s⁻¹
C11U A14G U49C	< 1e-05 s⁻¹
G7C A14C G35C U57G	< 1e-05 s⁻¹
A12C A33G C34U C50A A64U C70G	0.00011 ± 4.2e-05 s⁻¹
C10U G13U A52U	< 1e-05 s⁻¹
G7C G13U G43C G66U	< 1e-05 s⁻¹
G9A G40U G63A A64U	< 1e-05 s⁻¹
C10U A36C G40U G59U C67G	< 1e-05 s⁻¹
C10G A14U G32U C61A G63A	< 1e-05 s⁻¹
G9A G35C A64C C71U	< 1e-05 s⁻¹
G9U A12C U30C	< 1e-05 s⁻¹
C10U C11U A36C A42U A48C	< 1e-05 s⁻¹
C8A G35U A52U	< 1e-05 s⁻¹
G7C G29A G62U	< 1e-05 s⁻¹
C10G C34A A52U	< 1e-05 s⁻¹
C8G G9U C16A A53C	< 1e-05 s⁻¹
A6U G37U G40U	< 1e-05 s⁻¹

Variant	self-cleavage kobs at 2500 uM GlcN6P
C10A C11G G40U C50G A52U	< 1e-05 s⁻¹
C11G G35C U49G	< 1e-05 s⁻¹
C11U A36G G40U G44A C61A C71U	< 1e-05 s⁻¹
G9A A15G G26U	< 1e-05 s⁻¹
G9C C67A C70G	< 1e-05 s⁻¹
C11A G21U	9.85e-05 ± 2.9e-05 s⁻¹
C11U A15G G43A C67G	0.000114 ± 3.9e-05 s⁻¹
G7U G41C C50U	< 1e-05 s⁻¹
G7C C11U C34G U49G	< 1e-05 s⁻¹
C11G C50G C58A C61A	0.000322 ± 0.00011 s⁻¹
A12C A39G U47C	0.00269 ± 0.00067 s⁻¹
A6U U31G A36U	< 1e-05 s⁻¹
G7U G32C G40U U45G	< 1e-05 s⁻¹
A12C A15U G62A	< 1e-05 s⁻¹
G9C A48C G51C	< 1e-05 s⁻¹
G7A A15G G29A A36G A52G	< 1e-05 s⁻¹
C10U G35C G51U U56G G62U	< 1e-05 s⁻¹
C8U G9U G13A G37A G41A	< 1e-05 s⁻¹
C11U G13C U46G A64U	< 1e-05 s⁻¹
C8U C10U G13U G29C C58U C61A C67A	0.000532 ± 0.00015 s⁻¹
C10A U47A C70A	0.000334 ± 0.00015 s⁻¹
C10G G40C G59U	< 1e-05 s⁻¹
G9C A14U G29C	< 1e-05 s⁻¹

Variants of: B1
Test: self-cleavage kobs at 10000 uM GlcN6P; higher = faster cleavage; RNA array
Conditions: with glucosamine-6-phosphate
Method in brief: as §1

Variant	self-cleavage kobs at 10000 uM GlcN6P
C10U A33G A39G G41C C67U	< 1e-05 s⁻¹
C11U C16U A53C C68A C70G	< 1e-05 s⁻¹
C8A U31C A42U U65G	< 1e-05 s⁻¹
G7A U30A G60C	< 1e-05 s⁻¹
C8A A15G G32U G44U C67A	< 1e-05 s⁻¹
C11U C34G A52U	< 1e-05 s⁻¹
C10U C11G U57A	< 1e-05 s⁻¹
C10U A36C G40U G59U C67G	< 1e-05 s⁻¹
C10G C34A A52U	< 1e-05 s⁻¹
C11G G35C U49G	< 1e-05 s⁻¹
C11A G21U	0.000164 ± 3.4e-05 s⁻¹
C11U A15G G43A C67G	0.000119 ± 3.5e-05 s⁻¹
A6U U31G A36U	< 1e-05 s⁻¹
C11U G13C U46G A64U	< 1e-05 s⁻¹

— the supplement of paper PMC7125110
